Experimental data as given in patent publication US20100216170A1.

Key:
[1] = target: mutant membrane-bound TNFα on stably transfected CHO cells (B-220 cells) (UniProt P01375); assay: FACS, gate P4 (CHO cells with anti-CD19 beads), FIG. 4
[2] = target: mutant membrane-bound TNFα on stably transfected CHO cells (B-220 cells) (UniProt P01375); assay: FACS, beads with CHO-TNFα (B220), sample 2
[3] = target: mutant membrane-bound TNFα on stably transfected CHO cells (B-220 cells) (UniProt P01375); assay: FACS, gate P4 (CHO cells with anti-CD19 beads), middle panel of FIG. 3

Sequence of UniProt P01375 (P01375 whole entry, change not shown): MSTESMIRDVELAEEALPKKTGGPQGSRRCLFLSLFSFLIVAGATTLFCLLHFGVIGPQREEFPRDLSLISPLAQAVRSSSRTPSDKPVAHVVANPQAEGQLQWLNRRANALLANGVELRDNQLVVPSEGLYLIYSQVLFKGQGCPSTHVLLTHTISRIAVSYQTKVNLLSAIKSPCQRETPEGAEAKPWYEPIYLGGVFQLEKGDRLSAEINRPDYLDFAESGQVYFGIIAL

APC-labeled unrelated antibody (anti-CD19) coated on beads
#Events [1]: 2 events
% Parent [1]: 0%
% Total [1]: 0%
% bound beads [2]: 0.9%
#Events [3]: 6 events
% Parent [3]: 0.1%
% Total [3]: 0.1%
